Test results published in FireProtDB (doi:10.1016/j.jmb.2004.09.082).

B1: Co-chaperonin GroES, P0A6F9 (parent)
chain: MNIRPLHDRVIVKRKEVETKSAGGIVLTGSAAAKSTRGEVLAVGNGRILENGEVKPLDVKVGDIVIFNDGYGVKSEKIDNEEVLIMSESDILAIVEA

Variants of: B1
Conditions: Escherichia coli (strain K12); pH 7.8; 25 °C; GdnHCl; Chromatography; Tris-HCl 5 mM; KCl 200 mM; reversible: yes; structure 1AON; whole UniProt chain shown

Variant: MNCRPLHDRVIVKRKEVETKSAGGIVLTGSAAAKSTRGEVLAVGNGRILENGEVKPLDVKVGDIVIFNDGYGVKSEKIDNEEVLIMSESDILAIVEA [I3C]
- ddG of mutation (higher = less stable): 0.4 kcal/mol
- denaturant m value: 2.4 kcal/mol/M
- unfolding free energy: 1.9 kcal/mol

Variant: MNWRPLHDRVIVKRKEVETKSAGGIVLTGSAAAKSTRGEVLAVGNGRILENGEVKPLDVKVGDIVIFNDGYGVKSEKIDNEEVLIMSESDILAIVEA [I3W]
- ddG of mutation (higher = less stable): 0.4 kcal/mol
- denaturant m value: 2 kcal/mol/M
- unfolding free energy: 1.9 kcal/mol

Variant: MNIRPLHDRVIVKRKEVETKSAGGIVLTGSAAAKSTRGEVLAVGNGRILENGEVKPLDVKVGDIVIFNDGYGVKSEKIDNEEVLIMSESDILAICEA [V95C]
- ddG of mutation (higher = less stable): 0.3 kcal/mol
- denaturant m value: 2.2 kcal/mol/M
- unfolding free energy: 2 kcal/mol
